In publication doi:10.1101/2024.09.17.612794 (bioRxiv, 2024):

T1: Trn1Δloop (HEAT repeat 8 loop replaced with the GGSGGSG linker) (human, UniProt Q92973 1-343; Q92973 376-898)
T1 chain: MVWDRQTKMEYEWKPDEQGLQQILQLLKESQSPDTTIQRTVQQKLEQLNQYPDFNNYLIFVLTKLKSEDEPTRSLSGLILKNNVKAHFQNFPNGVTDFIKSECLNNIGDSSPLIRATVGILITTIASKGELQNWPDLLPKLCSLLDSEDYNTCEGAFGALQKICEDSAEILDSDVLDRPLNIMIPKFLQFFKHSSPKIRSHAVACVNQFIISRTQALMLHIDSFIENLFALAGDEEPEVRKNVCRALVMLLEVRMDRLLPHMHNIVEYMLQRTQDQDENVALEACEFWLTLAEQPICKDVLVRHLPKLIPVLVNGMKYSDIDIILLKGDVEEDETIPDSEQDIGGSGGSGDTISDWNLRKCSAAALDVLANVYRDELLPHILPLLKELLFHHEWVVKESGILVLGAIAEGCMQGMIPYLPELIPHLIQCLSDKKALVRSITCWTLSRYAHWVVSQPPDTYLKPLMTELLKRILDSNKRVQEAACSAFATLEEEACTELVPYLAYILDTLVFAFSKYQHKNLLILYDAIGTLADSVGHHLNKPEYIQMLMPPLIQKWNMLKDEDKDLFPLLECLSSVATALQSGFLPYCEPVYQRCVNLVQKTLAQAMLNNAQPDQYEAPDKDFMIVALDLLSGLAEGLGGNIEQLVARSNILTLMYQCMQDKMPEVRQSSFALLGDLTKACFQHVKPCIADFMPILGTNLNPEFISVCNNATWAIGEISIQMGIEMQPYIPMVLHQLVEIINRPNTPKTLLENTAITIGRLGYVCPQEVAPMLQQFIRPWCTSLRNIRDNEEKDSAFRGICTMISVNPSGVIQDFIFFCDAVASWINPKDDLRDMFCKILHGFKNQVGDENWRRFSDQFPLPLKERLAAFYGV

T2: full-length Transportin-1 (Trn1), wild type (human, UniProt Q92973 1-898)
T2 sequence (looked up): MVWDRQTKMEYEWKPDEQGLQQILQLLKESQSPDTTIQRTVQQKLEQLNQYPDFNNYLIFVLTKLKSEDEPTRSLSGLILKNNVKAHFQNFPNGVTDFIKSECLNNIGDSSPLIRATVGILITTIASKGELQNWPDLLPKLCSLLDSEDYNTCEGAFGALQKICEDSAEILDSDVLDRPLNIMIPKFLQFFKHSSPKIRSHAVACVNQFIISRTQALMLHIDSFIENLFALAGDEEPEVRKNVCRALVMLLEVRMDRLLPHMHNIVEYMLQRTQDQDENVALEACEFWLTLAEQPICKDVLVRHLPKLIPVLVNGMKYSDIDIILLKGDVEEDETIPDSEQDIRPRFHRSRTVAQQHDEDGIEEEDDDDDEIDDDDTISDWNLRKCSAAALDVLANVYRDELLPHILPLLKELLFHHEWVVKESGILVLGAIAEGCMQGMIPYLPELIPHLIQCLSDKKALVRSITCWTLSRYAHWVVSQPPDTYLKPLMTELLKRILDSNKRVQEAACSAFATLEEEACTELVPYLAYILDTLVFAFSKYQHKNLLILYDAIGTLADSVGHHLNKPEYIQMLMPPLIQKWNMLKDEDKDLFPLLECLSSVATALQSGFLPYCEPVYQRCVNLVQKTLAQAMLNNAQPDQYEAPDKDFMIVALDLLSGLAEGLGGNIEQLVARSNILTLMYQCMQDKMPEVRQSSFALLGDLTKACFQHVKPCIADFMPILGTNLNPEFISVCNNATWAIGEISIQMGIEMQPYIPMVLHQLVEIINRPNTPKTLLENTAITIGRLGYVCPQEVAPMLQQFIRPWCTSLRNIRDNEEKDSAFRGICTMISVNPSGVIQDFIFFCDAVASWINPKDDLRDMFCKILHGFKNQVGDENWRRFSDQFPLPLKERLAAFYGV


What was measured:
[1] = target: T1, Trn1Δloop (HEAT repeat 8 loop replaced …); experiment: SEC-MALS
[2] = target: T2, full-length Transportin-1 (Trn1), wild …; experiment: SEC-MALS
[3] = target: T2, full-length Transportin-1 (Trn1), wild …; experiment: ITC

stoichiometry N [1]	stoichiometry N [2]	Kd [3]	Binder
1 molar ratio	1 molar ratio		PPARγ (DBD), residues 135-209, purified (domain or fragment, human, UniProt P37231-1 135-209, looked up) MAIECRVCGDKASGFHYGVHACEGCKGFFRRTIRLKLIYDRCDLNCRIHKKSRNKCQYCRFQKCLAVGMSHNAIR
1 molar ratio	1 molar ratio	200 nM	PPARγ (DHL), residues 102-505, purified (domain or fragment, human, UniProt P37231-1 102-505, looked up) YQSAIKVEPASPPYYSEKTQLYNKPHEEPSNSLMAIECRVCGDKASGFHYGVHACEGCKGFFRRTIRLKLIYDRCDLNCRIHKKSRNKCQYCRFQKCLAVGMSHNAIRFGRMPQAEKEKLLAEISSDIDQLNPESADLRALAKHLYDSYIKSFPLTKAKARAILTGKTTDKSPFVIYDMNSLMMGEDKIKFKHITPLQEQSKEVAIRIFQGCQFRSVEAVQEITEYAKSIPGFVNLDLNDQVTLLKYGVHEIIYTMLASLMNKDGVLISEGQGFMTREFLKSLRKPFGDFMEPKFEFAVKFNALELDDSDLAIFIAVIILSGDRPGLLNVKPIEDIQDNLLQALELQLKLNHPESSQLFAKLLQKMTDLRQIVTEHVQLLQVIKKTETDMSLHPLLQEIYKDLY
